# Source: the RNAGym collection of RNA variant scans (doi:10.1093/molbev/msab373)
# B1: Azoarcus group I ribozyme (parent)
# chain: GUGCCUUGCGCCGGGAAACCACGCAAGGGAUGGUGUCAAAUUCGGCGAAACCUAAGCGCCCGCCCGGGCGUAUGGCAACGCCGAGCCAAGCUUCGGCGCCUGCGCCGAUGAAGGUGUAGAGACUAGACGGCACCCACCUAAGGCAAACGCUAUGGUGAAGGCAUAGUCCAGGGAGUGGCGAAAGUCACACAAACCGG
# Variants of: B1
# Assay: reverse-splicing fitness (ratio to wild type); higher = more active; in vitro selection; Mg2+ level not given
# Outline: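 An in vitro group I ribozyme library with randomized positions was T7-transcribed and gel-purified. In triplicate, 10 pmol RNA in EPPS pH 7.5 was reacted with 50 pmoles of a 30-nt RNA substrate for 1 h at 37 °C across several added MgCl2 levels (1–48 mM), then stopped with EDTA. Products were reverse transcribed from a substrate-complementary primer, PCR-amplified and sequenced (HiSeq 4000). Fitness is a variant's read proportion after selection over that before, normalised to wild type.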
row,Variant,reverse-splicing fitness
1,A111G A120C A145G C150G C169U U176C,0.0116
2,A111G A120C A145G C150G C169U U176G,0.00458
3,A111C A145G C150U C169U,0.0877
4,A111C A145G C150U C169A,0.0243
5,A111C A145G C150U C169G,0.0511
6,A111C A145C U176G,0.217
7,A111C A145C U176C,0.372
8,A111C A145C U176A,0.402
9,A111C C169G,0.0716
10,A111C C169A,0.032
11,A111C C169U,0.128
12,A111C C150A C169G U176G,0.00762
13,A111C C150A C169G U176C,0.0246
14,A111C C150A C169G U176A,0.016
15,A111G A120C A145G C150G U176G,0.00497
16,A111G A120C A145G C150G U176C,0.0262
17,A111G A120C A145G C150G U176A,0.0105
18,A111G A120C A145G C150U C169G U176G,0.00469
19,A111G A120C A145G C150U C169G U176A,0.0195
20,A111G A120C A145G C150U C169G U176C,0.0192
21,A111G A120C A145C C150U U176C,0.158

row,Variant,reverse-splicing fitness
1,A111G A120C A145C C150U U176G,0.05
2,A111G A120C A145C C150U U176A,0.17
3,A111G A120C A145G C150A C169U,0.0508
4,A111G A120C A145G C150A C169A,0.0114
5,A111G A120C A145G C150A C169G,0.0108
6,A111C A145U C150U U176A,0.365
7,A111C A145U C150U U176G,0.166
8,A111C A145U C150U U176C,0.36
9,A111C U176C,0.38
10,A111C U176A,0.368
11,A111C U176G,0.202
12,A111C C150G C169A U176C,0.0107
13,A111C C150G C169A U176A,0.00958
14,A111C C150G C169A U176G,0.00532
15,A111G A120C A145C C150U C169U U176A,0.0273
16,A111G A120C A145C C150U C169U U176C,0.0214
17,A111G A120C A145C C150U C169U U176G,0.00415
18,A111C A145U C169G U176G,0.00719
19,A111C A145U C169G U176C,0.0264
20,A111C A145U C169G U176A,0.0179
21,A111G A120C A145C C150G C169G,0.00666

row,Variant,reverse-splicing fitness
1,A111G A120C A145C C150G C169U,0.0377
2,A111G A120C A145C C150G C169A,0.00873
3,A111C C150A C169A U176G,0.00777
4,A111C C150A C169A U176A,0.0182
5,A111C C150A C169A U176C,0.0227
6,A111G A120C A145G C150A C169G U176A,0.0231
7,A111G A120C A145G C150A C169G U176G,0.00551
8,A111G A120C A145G C150A C169G U176C,0.0221
9,A111C A145G C150G C169U U176A,0.0107
10,A111C A145G C150G C169U U176G,0.00713
11,A111C A145G C150G C169U U176C,0.0142
12,A111G A120C A145C C150U C169G U176A,0.0186
13,A111G A120C A145C C150U C169G U176G,0.0049
14,A111G A120C A145C C150U C169G U176C,0.00855
15,A111G A120C A145G C150U C169A U176A,0.016
16,A111G A120C A145G C150U C169A U176G,0.00456
17,A111G A120C A145G C150U C169A U176C,0.0149
18,A111C A145U C150U C169G U176C,0.0215
19,A111C A145U C150U C169G U176G,0.00734
20,A111C A145U C150U C169G U176A,0.0147
21,A111G A120C,0.806

row,Variant,reverse-splicing fitness
1,A111G A120C A145C C150A C169U U176G,0.00433
2,A111G A120C A145C C150A C169U U176A,0.016
3,A111G A120C A145C C150A C169U U176C,0.012
4,A111G A120C A145C C169G,0.0105
5,A111G A120C A145C C169U,0.223
6,A111G A120C A145C C169A,0.0128
7,A111G A120C A145C C169G U176G,0.00352
8,A111G A120C A145C C169G U176C,0.00881
9,A111G A120C A145C C169G U176A,0.0167
10,A111G A120C A145G C169U U176A,0.064
11,A111G A120C A145G C169U U176G,0.00613
12,A111G A120C A145G C169U U176C,0.0832
13,A111G A120C A145C C150G C169U U176A,0.00771
14,A111G A120C A145C C150G C169U U176C,0.0127
15,A111G A120C A145C C150G C169U U176G,0.0038
16,A111C A145G C150G C169G U176C,0.0102
17,A111C A145G C150G C169G U176A,0.00954
18,A111C A145G C150G C169G U176G,0.00555
19,A111C C150U C169G U176C,0.0234
20,A111C C150U C169G U176A,0.014
21,A111C C150U C169G U176G,0.0072
